B1: hS100A11 (other, human, UniProt P31949 1-105, looked up)
S100A11: MAKISSPTETERCIESLIAVFQKYAGKDGYNYTLSKTEFLSFMNTELAAFTKNQKDPGVLDRMMKKLDTNSDGQLDFSEFLNLIGGLAMACHDSFLKAVPSQKRT
notes: recombinant; also called recombinant human S100A11 (ProSpec TechnoGene)
B2: murine S100A8/S100A9 complex (other)
chain 1: PSELEKALSNLIDVYHNYSNIQGNHHALYKNDFKKMVTTECPQFVQNINIENLFRELDINSDNAINFEEFLAMVIKVGVASHKDSHKE
chain 2: ANKAPSQMERSITTIIDTFHQYSRKEGHPDTLSKKEFRQMVEAQLATFMKKEKRNEALINDIMEDLDTNQDNQLSFEECMMLMAKLIFACHEKLHENNPRGHGHSHGKGCGK
notes: Heterodimer; also called murine S100A8/A9; murine complex S100A8/A9
B3: murine S100A8 (other, UniProt P27005 2-89, looked up)
chain: B2 chain 1
notes: Concentration is based on the homodimeric molecular weight
B4: murine S100A9 (other, UniProt P31725 2-113, looked up)
chain: B2 chain 2
notes: as for B3
B5: S100A1 (other, human, UniProt P23297 1-94, looked up)
chain: MGSELETAMETLINVFHAHSGKEGDKYKLSKKELKELLQTELSGFLDAQKDVDAVDKVMKELDENGDGEVDFQEYVVLVAALTVACNNFFWENS
notes: also called recombinant human S100A1
B6: S100B (other, human, UniProt P04271 1-92, looked up)
chain: MSELEKAMVALIDVFHQYSGREGDKHKLKKSELKELINNELSHFLEEIKEQEVVDKVMETLDNDGDGECDFQEFMAFVAMVTTACHEFFEHE
notes: also called S100β; recombinant human S100β
B7: human S100A12 (other, UniProt P80511 2-92, looked up)
chain: TKLEEHLEGIVNIFHQYSVRKGHFDTLSKGELKQLLTKELANTIKNIKDKAVIDEIFQGLDANQDEQVDFQEFISLVAIALKAAHYHTHKE
notes: also called S100Al2
B8: anti-S100A9 monoclonal antibody 43/8 (antibody, V domains shown)
VH: PELVKSGASVKISCKASGYSFTDYNINWVKQSNGKSLEWIGLINPNYGTTFYNQKFKGKATLTVDQSSSTAYMQLNSLTSEDSAVYYCARETLLLRYFDYWGQGTTLTVSS
VL: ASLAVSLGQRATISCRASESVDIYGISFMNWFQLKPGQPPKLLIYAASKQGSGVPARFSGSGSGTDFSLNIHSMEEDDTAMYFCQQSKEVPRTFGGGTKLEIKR
notes: Mouse monoclonal from an S100A9-null C57BL/6 mouse; also called anti-S100A9 mAb 43/8; mAb 43/8
B9: human S100A8/S100A9 complex (other)
chain 1: MLTELEKALNSIIDVYHKYSLIKGNFHAVYRDDLKKLLETECPQYIRKKGADVWFKELDINTDGAVNFQEFLILVIKMGVAAHKKSHEESHKE
chain 2: MTCKMSQLERNIETIINTFHQYSVKLGHPDTLNQGEFKELVRKDLQNFLKKENKNEKVIEHIMEDLDTNADKQLSFEEFIMLMARLTWASHEKMHEGDEGPGHHHKPGLGEGTP
notes: Heterodimer; also called S100A8/A9; S100A8/9
B10: human S100A8 (other, UniProt P05109 1-93, looked up)
chain: B9 chain 1
notes: The source is 'produced recombinantly ... or obtained from elsewhere'
B11: recombinant human S100A9 (ligand)
chain: B9 chain 2
notes: Concentrations are based on the homodimeric molecular weight; Assays were run with Ca2+ and Zn2+; also called hS100A9; rhS100A9

Where only a bound is given, the exact number is not on record here.

Assay [1] addresses T1, recombinant human RAGE/Fc chimera (R&D Systems cat. No. 1145-RG) (human, UniProt Q15109 23-344).
T1 construct: Disulfide-linked homodimer expressed in NS0 cells, glycosylated and amine-coupled to a CM5 chip; also called rhRAGE-Fc; immobilized RAGE; not shown: peptide linker between RAGE and Fc; Fc region of human IgG1
As to the kind of experiment: SPR (Biacore), 200 nM protein over amine-coupled RAGE/Fc, 1 mM CaCl2 and 10 µM ZnCl2. As for the experimental part: (§1) Binding analysis was performed using the “surface plasmon resonance” (SPR) technology with a Biacore 3000™ system. This technology allows analysis of an interaction between proteins and small molecules in a real-time and label-free manner. A protein or low-molecular weight compound is injected over a surface (a CM5 sensor chip) with a covalently coupled ligand and the signal produced, expressed as resonance units (RU), is directly proportional to the number and mass of the molecule interacting with the ligand on the surface. Immobilization, regeneration scouting, surface performance tests and binding studies were conducted basically according to the instructions by the manufacturer. Kinetic evaluation of binding data was carried using the BIAevaluation Software Version 3.2 (Biacore AB). Optimization of conditions for immobilization and binding analysis is carried out for each interaction to be studied.
(§2) Recombinant human RAGE was obtained from R&D Systems (cat. No. 1145-RG) as a fusion protein of the extracellular domain of RAGE, comprising a.a. 1-344, and the Fc region of human IgG₁ via a peptide linker. The chimeric protein was expressed in the mouse myleoma cell line NSO as a disulfide-linked homo-dimeric protein with a calculated molecular mass of 61 kDa. Prior to covalent coupling to the sensor chip, buffer was changed to a standard Biacore buffer (10 mM Hepes, 0.15 M NaCl, pH 7.4, containing 0.005% v/v Surfactant P20; HBS-P) using Fast Protein Desalting Micro-Spin Columns (Pierce). RAGE was diluted in an immobilization buffer shown to give sufficient pre-concentration and then covalently coupled using the “Aim at immobilization level” function in the Biacore Wizard to obtain various coupling densities. Activity of immobilized RAGE was tested by injecting a specific anti-human RAGE monoclonal antibody over the surface.
(In general: Surface plasmon resonance follows binding to a sensor surface in real time, without labels.)

In assay [2] the target is T1, recombinant human RAGE/Fc chimera (R&D …). As to the kind of experiment: SPR (Biacore), 200 nM protein over amine-coupled RAGE/Fc, 1 mM CaCl2 and 10 µM ZnCl2; Req or response at late association, not corrected for mass. As for the experimental part:
as §1, §2

The target in assay [3] is B11. Nature of the assay: SPR competition: 100 nM S100A9 pre-incubated with 12.5-500 nM 43/8, injected over immobilized RAGE-Fc; log-logit plot. The method, then:
(§3) Binding data were transformed to a log-logit plot for calculation of IC₅₀ value.
The assay was performed by coating human RAGE on a standard CM5 chip at high density (3000 RU) using standard amine coupling.

Assay [4] addresses B11. As to the kind of experiment: SPR competition: 100 nM S100A9 pre-incubated with 12.5-500 nM 43/8, injected over immobilized TLR4/MD-2; log-logit plot. As for the experimental part:
as §3
The assay was performed by coating human TLR4/MD-2 complex on a CM5 chip at a density of ˜3000 RU using standard amine coupling.

In assay [5] the target is B11. Nature of the assay: SPR competition: 100 nM human S100A9 pre-incubated with 0-400 nM 43/8 or 1C10, injected over immobilized 43/8; reference 1C10. As for the experimental part:
Incubated samples were then injected for 3 min at a flow rate of 30 μl/min (1; association phase) followed by injection of sample buffer (2; dissociation phase). Responses were calculated at late association phase.

Assay [6] deals with B11. As to the kind of experiment: SPR competition: 100 nM S100A9 pre-incubated with 12.5-500 nM 43/8, injected over immobilized amino-linked Compound A (a small molecule); log-logit plot. As for the experimental part:
The assay was performed by coating amino-linked Compound A on a CM5 chip using standard amine coupling.

Assay [7] concerns the target T1, recombinant human RAGE/Fc chimera (R&D …). As to the kind of experiment: placeholder.

We go through eleven molecules from patent publication US20100166775A1 (ACTIVE BIOTECH, published 2010).

T1 sequence (Q15109 23-344, change not shown): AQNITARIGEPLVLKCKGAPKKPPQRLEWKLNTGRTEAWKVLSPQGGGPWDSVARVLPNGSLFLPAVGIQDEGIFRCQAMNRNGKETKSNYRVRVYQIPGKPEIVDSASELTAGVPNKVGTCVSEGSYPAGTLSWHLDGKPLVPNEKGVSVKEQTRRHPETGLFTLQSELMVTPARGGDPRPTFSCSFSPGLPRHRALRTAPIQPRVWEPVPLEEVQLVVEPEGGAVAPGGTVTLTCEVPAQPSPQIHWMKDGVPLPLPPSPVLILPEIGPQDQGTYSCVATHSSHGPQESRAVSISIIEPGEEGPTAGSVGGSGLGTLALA

For B1, the binding result in assay [1] is given as “no binding (tested: 200 nM)”.

On to B2, for which the binding result in assay [2] is “binds”.

Turning to B3, in assay [1], the binding result was “no binding (tested: 200 nM)”.

In the case of B4, the binding result in assay [1] was “no binding (tested: 200 nM)”.

B5: the binding result in assay [1] is reported as “no binding (tested: 200 nM)”.

In the case of B6, the binding result in assay [1] is “no binding (tested: 200 nM)”.

In the case of B7, the binding result in assay [2] was “binds”.

The term IC50 denotes the point on the concentration scale where inhibition reaches its midpoint. As to B8, the IC50 was determined as 34 nM in assay [3], 27 nM in assay [4] and 120 nM in assay [6]. Further, the “fold higher inhibition of S100A9 binding to immobilized 43/8 than for antibody 1C10” value in assay [5] was more than 10 fold.

Regarding B9, the binding result in assay [2] is “binds”.

Consider B10, for which the binding result in assay [1] is on record as “no binding (tested: 200 nM)”.

Turning to B11, the “fold higher binding than the next group of RAGE binders (AnxII, S100A12, S100A8/9)” value in assay [7] stood at 10 fold.
